Usually Kd stands for the constant that tells how readily two partners part at equilibrium. Usually stoichiometry N stands for a count of units in the complex or per binding partner.

The text below walks through data of article PMC3325491 (Structure(London, England:1993), 2012).

Data set [1] has as its target HPV16 E6N domain (residues 1-80), wild type (HPV16). Description: NMR titration.
The data set “SEC” concerns the molecule itself. The experiment in a line: SEC. Background: SEC sorts molecules by how far they enter the pores of the column.
The data set “AUC” deals with the molecule itself. Description: AUC.

Turning to “HPV16 E6N domain (residues 1-80), wild type (domain or fragment)”, the Kd in data set [1] is 290 µM.

B1: HPV11 MBP-E6N fusion construct (E6N residues 1-81) (domain or fragment)
chain: MESKDASTSATSIDQLCKTFNLSLHTLQIQCVFCRNALTTAEIYAYAYKNLKVVWRDNFPFAACACCLELQGKINQYRHFN
For B1, the “stoichiometry N” value in “SEC” was found to be 2.

B2: HPV18 E6N domain (residues 1-82) (domain or fragment)
chain: MARFEDPTRRPYKLPDLCTELNTSLQDIEITCVYCKTVLELTEVFEFAFKDLFVVYRDSIPHAACHKCIDFYSRIRELRHYS
Consider B2, for which, in “AUC”, the “stoichiometry N” value was found to be 2.
